The record followed here is patent publication US20120316071A1 (published 2012).

In assay [1] the target is T1, rHuman ErbB2/Fc Chimera, CF (R&D Systems Cat#1129-ER) (human, UniProt P04626 23-652).
T1 construct: Bought from R&D Systems; also called human epidermal growth factor 2 receptor (ErbB2); not shown: Fc of the bought chimera
The assay is described as follows: MSD multispot ECL, antigen spotted on plate, Fab 88.1 nM; blank spot 301.

For assay [2], the target named is T2, rHuman Notch-1/Fc Chimera, CF (R&D Systems Cat#3647-TK) (human, UniProt P46531 19-526).
T2 construct: Bought from R&D Systems; not shown: Fc of the bought chimera
The assay is described as above.

Assay [3] addresses T3, rHuman HGF R/c-MET/Fc Chimera, CF (R&D Systems Cat#358-MT/CF) (human, UniProt P08581 25-932).
T3 construct: Bought from R&D Systems; also called HGF R/Fc; hepatocyte growth factor receptor (HGF R/c-Met); not shown: Fc of the bought chimera
Described as above.

Assay [4] deals with T4, rHuman IGF-1 sR, (IGF-1 sR), CF (R&D Systems Cat#391-GR) (human, UniProt P08069 31-932).
T4 construct: Bought from R&D Systems and called a soluble receptor; also called insulin-like growth factor-1 soluble receptor
The assay is described as above.

For assay [5], the target named is T5, rHuman EGF R/Fc Chimera, CF (R&D Systems Cat#344-ER) (human, UniProt P00533 25-645).
T5 construct: Bought from R&D Systems; also called epidermal growth factor receptor (EGF R); not shown: Fc of the bought chimera
Described as above.

The target in assay [6] is T6, rHuman P-Cadherin/Fc Chimera, CF (R&D Systems Cat#861-PC) (human, UniProt P22223 108-654).
T6 construct: Bought from R&D Systems; not shown: Fc of the bought chimera
The assay is described as above.

The target in assay [7] is T7, rHuman CD44/Fc Chimera, CF (R&D Systems Cat#3660-CD) (human, UniProt P16070 21-220).
T7 construct: Bought from R&D Systems; not shown: Fc of the bought chimera
The description is as above.

Assay [8] addresses T8, rHuman Erythropoietin R/Fc Chimera, CF (R&D Systems Cat#963-ER) (human, UniProt P19235 25-250).
T8 construct: Bought from R&D Systems; also called EPO R/Fc; Epo R/Fc chimera; not shown: Fc of the bought chimera
T8 sequence (looked up): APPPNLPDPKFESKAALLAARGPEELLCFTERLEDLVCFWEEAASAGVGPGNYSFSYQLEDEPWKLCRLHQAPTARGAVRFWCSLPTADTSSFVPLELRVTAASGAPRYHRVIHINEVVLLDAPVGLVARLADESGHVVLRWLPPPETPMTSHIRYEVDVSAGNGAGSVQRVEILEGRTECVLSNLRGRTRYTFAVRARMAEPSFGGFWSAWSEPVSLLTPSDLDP
The description is as above.

The target of assay [9] is T9, Recombinant Human DLL4 (R&D Systems Cat#1506-D4/CF) (human, UniProt Q9NR61 27-524).
T9 construct: Bought from R&D Systems; also called rHuman DLL4; delta-like protein 4
The description is as above.

Assay [10] has as its target T10, rHuman P-Cadherin/Fc Chimera, CF (R&D Systems Cat#861-PC) (human, UniProt P22223 108-654).
T10 construct: Bought Fc chimera; Fc part of the bought chimera not given
Nature of the assay: MSD Multispot ECL, antigen spotted on plate, Fab at 15 nM; blank spot 261.

Assay [11] addresses T11, rHuman Notch-1/Fc Chimera, CF (R&D Systems Cat#3647-TK) (human, UniProt P46531 19-526).
T11 construct: Bought Fc chimera; Fc part of the bought chimera not given
The assay is described as above.

For assay [12], the target named is T12, rHuman CD44/Fc Chimera, CF (R&D Systems Cat#3660-CD) (human, UniProt P16070 21-220).
T12 construct: Bought Fc chimera; Fc part of the bought chimera not given
Described as above.

Assay [13] addresses T13, rHuman Erythropoietin R/Fc Chimera, CF (R&D Systems Cat#963-ER) (human, UniProt P19235 25-250).
T13 construct: Bought Fc chimera; also called EPO R/Fc; Epo R; Fc part of the bought chimera not given
T13 sequence (looked up): T8 sequence (looked up)
Described as above.

Assay [14] deals with T14, Recombinant Human DLL4 (R&D Systems Cat#1506-D4/CF) (human, UniProt Q9NR61 27-524).
T14 construct: Bought recombinant protein; also called rHuman DLL4; delta-like protein 4
The description is as above.

For assay [15], the target named is T15, rHuman IGF-1 sR, (IGF-1 sR), CF (R&D Systems Cat#391-GR) (human, UniProt P08069 31-932).
T15 construct: Bought soluble receptor; also called insulin-like growth factor-1 soluble receptor
The assay is described as follows: MSD Multispot ECL, antigen spotted on plate, Fab 32.5 nM; blank spot 473.

In assay [16] the target is T16, rHuman Notch-1/Fc Chimera, CF (R&D Systems Cat#3647-TK) (human, UniProt P46531 19-526).
T16 construct: Bought reagent; Fc part of the bought chimera not given
The description is as above.

Assay [17] addresses T17, rHuman EGF R/Fc Chimera, CF (R&D Systems Cat#344-ER) (human, UniProt P00533 25-645).
T17 construct: Bought reagent; also called epidermal growth factor receptor; Fc part of the bought chimera not given
The assay is described as above.

Assay [18] has as its target T18, rHuman HGF R/c-MET/Fc Chimera, CF (R&D Systems Cat#358-MT/CF) (human, UniProt P08581 25-932).
T18 construct: Bought reagent; also called HGF R/Fc; hepatocyte growth factor receptor; Fc part of the bought chimera not given
The assay is described as above.

B1: Fab VH1-46_IGHD3-10*01_IGHJ4*01 & B3_IGKJ1*01 (Fab, V domains shown)
VH: QVQLVQSGAEVKKPGASVKVSCKASGYTFTSYYMHWVRQAPGQGLEWMGIINPSGGSTSYAQKFQGRVTMTRDTSTSTVYMELSSLRSEDTAVYYCAREYYYGSGSYYNDYFDYWGQGTLVTVSS
VL: not shown
notes: Tested as a Fab made in E. coli; VH was cloned into Plasmid A (CH1 constant region, His6 and Flag tags); The kappa VL was cloned into Plasmid C (kappa CL)
Take B1: the ECL signal is 200 in assay [1]; 440 in [2]; 392 in [3]; 273 in [4]; 376 in assay [5]; 278 in assay [6]. In addition, the ECL signal in assay [7] came to 340; in [8] it was 3370; in assay [9] it was 434.

B2: Fab VH6-1_IGHD3-3*01_IGHJ4*01 & V4-3_IGLJ4*01 (Fab, V domains shown)
VH: QVQLQQSGPGLVKPSQTLSLTCAISGDSVSSNSAAWNWIRQSPSRGLEWLGRTYYRSKWYNDYAVSVKSRITINPDTSKNQFSLQLNSVTPEDTAVYYCAREYYDFWSGYYTDYFDYWGQGTLVTVSS
VL: QPVLTQPTSLSASPGASARLTCTLRSGINLGSYRIFWYQQKPESPPRYLLSYYSDSSKHQGSGVPSRFSGSKDASSNAGILVISGLQSEDEADYYCMIWHSSASFVFGGGTQLIIL
notes: Tested as a purified germline Fab made in E. coli; The VH was cloned into plasmid A (CH1 constant region, His6 and Flag tags) and the lambda VL into plasmid E (lambda CL)
As to B2, the ECL signal in assay [10] was determined as 351; in [11] it was 508; in assay [12], 454; in [13] it was 397; in assay [14] it was 690.

B3: Fab VH1-8_IGHD2-2*01_IGHJ6*01 & L12_IGKJ1*01 (Fab, V domains shown)
VH: QVQLVQSGAEVKKPGASVKVSCKASGYTFTSYDINWVRQATGQGLEWMGWMNPNSGNTGYAQKFQGRVTMTRNTSISTAYMELSSLRSEDTAVYYCARGGYCSSTSCYADYYYYYGMDVWGQGTTVTVSS
VL: not shown
As to B3, the ECL signal was 561 in assay [15], 706 in [16], 645 in assay [17] and 525 in assay [18].
